Among the targets are ABP 710; infliximab (EU); infliximab (US).
What all share (test): SPR; Biacore T200; recombinant human TNFα immobilized on a CM5 chip, antibody captured through binding to TNFα; association and dissociation globally fit to a 1:1 binding model; average of 3 intra-assay replicates per lot
A general note: SPR reads the build-up and loss of mass on a sensor chip optically.

As to FcγRIIIa (158V), the Kd (in general, the constant that tells how readily two partners part at equilibrium) with ABP 710 lay in the range of 68 to 80 nM.

Take FcγRIIIa (158V) (receptor): the Kd with infliximab (EU) was in the range of 59 to 89 nM; with infliximab (US) it was 63 to 93 nM.
